In the domain aggregation screens of Martell et al. (2025):

Assay: soluble fraction after stress (log2 fold change); higher = more stays soluble; pooled small domains, quantitative proteomics
Conditions: stress: pH 4
Outline: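 Pooled custom libraries of small protein domains were stressed at pH 4 and then measured by high-throughput quantitative proteomics. The fold change in the amount of each domain that stays soluble after the acid stress serves as a measure of aggregation propensity. Fold changes are given on a log2 scale, and higher values mean more of the domain stayed soluble.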

| Sequence | soluble fraction (log2) |
| --- | --- |
| HMELNESVLKALYEKFREMSGSKGFITEDEVIIQLEKENPDITPDQQAEIFKYLYDTPLQIY | -0.996 |
| HMELNFEGFYRFVRDELNVDLNAYKEKQLKRRIATVMKSSGALTLEDYSRLIANDEVIRNKFLDYITI | -0.894 |
| HMELPMGTQLPPERELAQQMQVSRAVVNGGLAELAQQGFLEVRPRQGTFVADYRRKGNLSTLIAIMEY | 0.22 |
| HMELPPLQPGQPIDGRVEQQIRAGYYVVSVRGRGYEFQLPESARPGDLLRMVYLNDHPRLTFALLRIDNAN | -0.546 |
| HMELPVAVPHTELSPEALRGVVESFVLREGTDYGERDVPFEAKVAQVIRQLERGEARIMFDPVTQSVQIVT | -0.411 |
| HMELRSPMPGLIIEIPVSKGDIIKKDQSLIILEAMKMENVLTSPINGKIADIKVNVQDTVEKNNLLITFEN | -1.23 |
| HMELSESLENYLVVIYEAHLRNEIARIKDMTASLSVKHTSAIDAIKKLEDLGIVNYEKRGFVKLTQSGIEK | -0.177 |
| HMELSPAELGERLKVARETANVTQDAGAKAAGIARTTLVAIEKGQRSARIDELQTLSRRYGVSVNSLLRR | 0.096 |
| HMELSSRQAMIVDIVRKYEPITSEQIADKLNLTRSALRPDLAVLTMIGILEARPRVGYFFTGK | -0.269 |
| HMELSTQERIQILLEILNQREIISFSQTLRKKEGKKGVVVTFLASLELAKDGYVTLVQNKSDQIYLRSN | -0.428 |
| HMELTDSLTENAKKLYSVLTTEPRHIDDLSEEAKLSSADTLAALTELELYSLVALSEGKHYYK | -1.05 |
| HMELTKAELEVMQILWKLKKAFVGDILDRMVEPKPAYNTVSTVVRLLEKKGVVGHESFGKSHRYYPL | -0.0549 |
| HMELTVPDFTNMSLEDAINLAEKRDVRLEVTDSVFVKRLGRGFIYSQNPVAGSKVKKGRRILITINAIN | 0.113 |
| HMEMDPKELGRQVLAKRKEKGWSQEQLGKMAEISRNYVSQIERGEADSISIKIINRLAIALGVSPSDLGE | 0.21 |
| HMEMKHKNSQIFQAIKLKHMGFTPTQISEELRVSRTTINHWLTKAQLKDVKWEDIRENSADELVKLLFG | -0.322 |
| HMEMNPLDIQNKAAELAQQWLQLPVGERQKQMAAVRTSNPNLHAMAKQKMEEMRSQAESQGRQSLSQP | -0.0586 |
| HMEMTDKEEELMRIFWNHGPMFVREIVELYPEPRPHFNTLSTFVRNLEQKGFVSHEAVGGSFRYYAV | -1.44 |
| HMEMTEDEITKQFDAMEREAKKEIDTGADKRAFMYGVSRTAAGMAGKNPKYARFITDKAKEVIENIAKYK | 0.207 |
| HMENAEALLKKLSGVLSDYEYKMLMLYADGKTPRRIAQETGQSAKSVSNALFRARTKLKELYEDQ | -0.455 |
| HMENEIVMPVQINGKKRGDLTIARDADQASIQKAVLELDFVKAALNGGSPKKVIVVPQRIVNVV | 0.127 |
| HMENFKVFMKAVQEVSPVPVRFDEISSGAKGYYSNTEKEIVIQNGMSESQTMKTGIHEVTHAMLHDRDF | 0.22 |
| HMENFYGYEIINPEAKKFFITMGVNRYALEQWIKNKSEYGLIIVKSLYPFDPRLKLFLEKNRERIQNLIF | -0.305 |
| HMENKLIELTLSLDKSERLDKILTQELSHTRSVIQQWLKSGFVSVNGEIVKANYKAKDGDHVTIQIE | -0.379 |
| HMENKTGEVTVREDSALTLRQGPGTNYEKVGQAYRGDRVDVLEEQNGWYKVKTYDGKEAWASSSYISIV | -0.0485 |
| HMENMETSDIVARYSNMPGGIIEAFHEIVDRHGFLSQEAIIEAARGFGISVAEAYGVATFYSMFS | -0.42 |

| Sequence | soluble fraction (log2) |
| --- | --- |
| HMENMRLILASNLRRIREERRLSLNKVSELTGVSKSMLGQIERGESNPTLQTVWKIANGLRVSLTDLTEVP | 0.252 |
| HMENRILLSEDSLKHLAQDIPIDIIEKLSVLKDQIYHRYDDFNSIVQGLLGGENYLKYKDNILSFVEQ | -0.311 |
| HMENSMDTDWDVSGVDPSQYRLLFSTLGAIAGVKDVGLNPDGLKIIHTPEALPAIKQAFDANNLKLKMRTN | -0.251 |
| HMENSPLTHREAEVMRLMSEGKSNRAISEHLVISEKTVKNHVSSILQKMSVDDRTQAVLQAIKNGWVD | 0.142 |
| HMENTGFKDKKGNYIFDGDIVKDILGNIMKVEFKHFKWQLIPLNKTAFNMPMVDWLDLETETLNAEIIGN | -1.69 |
| HMENTIESLLKAKGFNDIIVTVSDKQVDVVVSDKEIADNKRAQIEDVIKRKTGLEASAITITPA | -0.332 |
| HMENVLFVNVLSMTVRELAEMMKIPVNKIIQDSFSKGIMMNPNQRLEYDNFAELAKKYGITVKI | -0.691 |
| HMENVMLRNFAIQATEAGVIKLLEDQRTFVWGSNNKKFMTVPFDEHPYSAMAAFFKTDEGLEIYKSIEKKF | -1.43 |
| HMENYQIETFVKFIEESTGEDGVAFEDLFQNFTSRPAVITMFLALLEALRRNSIRIFQKEEFSQILIYPK | -1.21 |
| HMENYTYKYATSANVNIREEPNTDSTILGKTLLNTEFQVVEDVDGWSKITTEAGYAYIKSEYLSDTE | -0.392 |
| HMEPDEQAVKALIAEIDKLSKEKLTLKHEKKLKELREIYDDFTEEEKKLVTNYDILVKMEKRMEVLKKQEG | 0.19 |
| HMEPDEYTVRQAFMKFDVGGEGRVPRDKLKALLETLGLELSAQQVRESEEQLDPEGTGFTSYGDFLMWWN | -1.33 |
| HMEPEVSNTYEKVLGMHHFSSTRSHQLHDLVRQANALELSLGEIESIAQSAKDGAQVISDIKHWMEPNRQ | -0.185 |
| HMEPEWVINTDGSNLNEILAIDEVDSRKTFSNDLQEVYRTFGIEAARQILVQEIDAVIESSGA | -0.675 |
| HMEPFEQLLDRITSQTGKEPEEVVARMNELITERFDGNIRPEAALVIVAKRDNIQFMDLLDQLKQALL | -0.907 |
| HMEPIAFDNMHNRGIKGTNDWTQYEITLPFSAEAKKIFVAGLLVGKGKAWFDKFEVFLDGKNITDVAQI | -0.0075 |
| HMEPPPSYSALLKQISSGKVKELQLVPARREVIVTYPDGRSATVAILANDQQILRTAEAAGTPLLVK | 0.326 |
| HMEPQLVKSFDVQTELTYDQFLSKYPESHTLGRLLVQPEPIPFEPYKNIPGITPEKLLALHAKHLEAR | -0.169 |
| HMEPQSRTAYRLIEAMIVTHELPPGSRISEASLSAKLGIGRTPIREALQRLSFEGTVKIVPRSGAFVSEI | 0.183 |
| HMEPREALDGLISERGETYASISRLLGRNSAYIQQFIKRGSPARLDQSDIALLALHFDVPVEMLGGKE | 0.054 |
| HMEPTIGTATVTSGSRLNMRSAKSTSASVVTRIPSGATVGVISYASDWSKVTYNGYTGYVSSPYISMNG | -0.108 |
| HMEPVIELGDRTLPIEITRHRRARRLTLRLAADGSAVRITLPHWARSAEATAFAHARRDWLAAQLAK | 0.108 |
| HMEPVTETVYAMDTVNIRAAADQTSEKIGSVTVGTALTRTGTDGDWSIIDYNGTTGYVKSEFLSNTAPEV | -0.22 |
| HMEQLIIQEELSGKRLDQLVSLLFPSLTRAHAQKLIKEGAVLVNEKPRKPAYAVMTGELLTVELPEPE | -0.755 |
| HMEQNHYEVLGVSRDAIPEEIRKAYFEYARKLHPDANPDPGAAEQFMRIQTAYDVLSNPDRRHEYDGLLPP | -0.249 |

| Sequence | soluble fraction (log2) |
| --- | --- |
| HMEQRREEFILLAKELLEKELRKQNLEVHENLKPDVLNDVAKRLGMVSMDDLLAAVGDGKITPGTVVSKIV | -0.389 |
| HMEQVLNVAVRRGELIMSSAAEQTVRIYSSAGSMVWQGKVSASDVTVELPSGVYVVNGKKVV | -0.513 |
| HMEQYFEDEELNDKFLEFLAMRKRVRKPVQTDRGMKMLLTSLHKLSGGDVGLMKQIIDQSLDNEWKKFVA | -1.12 |
| HMERDIATKHEVNRTVEAYSDIVKTLNLPSHKINLVEISFFNILKRSKPSPRENSILLGLAQKIKLHLEKK | -0.473 |
| HMERLKYSQVVDLFKGEQVKSFVLDESNQLKMELQDGSTVSYKLRSFEQFYLDLSDTVKEQKESGIITDYD | -1.72 |
| HMERPPHELLSDREYQTMVMIASGRTLTQIAEEMSLSPKTVSVYRARLLEKMKLKNNAELTHYALKHKLV | -0.2 |
| HMERPSLDQVLAHAKALGIAPARFVAYADGRWGTGWRLSPHGRARAWEELDRHRNDPLGYRDKLDVALQSG | 0.181 |
| HMESAQLIINVAGKVSNPGVYQLPQGSRVVDAIEAAGKQLKGVDISDINLARVLVDGEQILVGGV | -1.35 |
| HMESAVDVFRSILKEKGVTEEEVRQVVAARGKYTLETPIDDYPNEFLYGYVIRYWDQIFDIIQQSREAK | -1.57 |
| HMESEAKLGVAFNGKTRFDMTFPADADNKTIEEAVLADERAQKYLEGFQVAKVIIVPKRMVNIVLK | ≥ 0.43 |
| HMESEIYKKIEKSRLLELAFTKSQKGDLTGAYDLYYQAFTKYDVIADNQNRYFEDFISLIRRKQQQD | -0.822 |
| HMESGLPLPRFVSLGADEVNLRTGPGLRYPVAWVFVRKALPVEIVAEFEQWRRVRDFEGAEGWVHKAML | -0.527 |
| HMESGSSKINQDILETFTRGKKSLSISDISRLSGHHRHTVARYLDNLVSSGKLEMRQHGQKKKYYLSDIQP | 0.0709 |
| HMESILDDFPGLGAVRRAALLEHFGDIDRLRAASAVEITEVDGFGDVLARELHDFLHRPKPDA | -0.768 |
| HMESKKKTYTVKSGDTLVSILKREGVPQELIFKDYLGLFLELNPQISDINKLRVGQEIVLPVPG | 0.3 |
| HMESLGEKIKNIRISNNLKQSELADILHISEKTISSWENNRTTPDLNMIYKISNYFKKSFYYLISDDYI | -0.283 |
| HMESMIGSLRGRLLELFGDGEVLIEVGGVGYRVIVTPTTTVRLGDVGGDVFVHVHHHIREADQTLYGF | -0.722 |
| HMESPSGGHRIALAFDQGTARAVDATYARLTGAGYEGRTKPWDAPWGQRYATVFDPDGNSVDLFAALE | -0.544 |
| HMESRDRVRQASAAGYRFMSTMAGHEPGFEEASRALFAGDQTAFEARITAWPVDVQTHLKKILAEAFTT | -0.939 |
| HMESRLQAAIALRKAGEHEQSREALKILADEPALRAQALLNIAWSFDNQGHERDAEGYYLAAIE | 0.127 |
| HMESSKLQASIINYLERRPTQKFTAEELFKGLSLEKASVFNELVKELTSLERSHKVEITADDKFKIARPQ | 0.0446 |
| HMESSSQLGFELARLVESGNDEEARALVQAKELSEADERKWLYHLGNLLHAAGRPLQASAIWREVGT | -0.436 |
| HMESVQWSVFPSAKYVTIISFDPTTSGGSATAKFKVSDEARSKGFRFRIEAAIGEGIMRSEMYVIEE | -0.0704 |
| HMESWNRARILEKIRELHAQGVALNNASMRRLGYRGMMEAAARPQNFGSWEAAVRAAGIDYDRV | 0.22 |
| HMETAVMPDVMKLDSTTAIQALKDKGFATIETYEVKSDRPAGVVVRQSETADSVVALSKEILLGVSNGADY | -0.00473 |
